Blank lines part the entries; values can stand above or below the molecule they belong to.
Assays:
[1] = system: T1, Xenopus Geminin-H, translated in vitro
T1 sequence: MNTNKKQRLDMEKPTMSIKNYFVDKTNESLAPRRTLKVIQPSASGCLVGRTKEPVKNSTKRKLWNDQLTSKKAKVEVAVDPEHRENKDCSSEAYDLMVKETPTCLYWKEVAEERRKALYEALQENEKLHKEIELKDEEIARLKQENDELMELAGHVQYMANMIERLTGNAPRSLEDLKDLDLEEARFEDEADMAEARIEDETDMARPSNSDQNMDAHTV

[2] = system: T2, geminin^DEL (geminin H with the nine amino acids of the destruction box RRTLKVIQP, 33-41, removed), translated in vitro
T2 sequence: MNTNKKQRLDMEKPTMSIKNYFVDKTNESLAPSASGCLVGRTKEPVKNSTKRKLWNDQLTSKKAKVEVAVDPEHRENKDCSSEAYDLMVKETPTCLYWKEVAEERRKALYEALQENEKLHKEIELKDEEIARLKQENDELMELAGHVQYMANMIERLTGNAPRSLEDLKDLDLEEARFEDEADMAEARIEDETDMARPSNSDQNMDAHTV

[3] = target: T3, Xorc2 (Xenopus, UniProt Q91628 1-558); assay: co-immunoprecipitation (preliminary experiments)
T3 sequence (looked up): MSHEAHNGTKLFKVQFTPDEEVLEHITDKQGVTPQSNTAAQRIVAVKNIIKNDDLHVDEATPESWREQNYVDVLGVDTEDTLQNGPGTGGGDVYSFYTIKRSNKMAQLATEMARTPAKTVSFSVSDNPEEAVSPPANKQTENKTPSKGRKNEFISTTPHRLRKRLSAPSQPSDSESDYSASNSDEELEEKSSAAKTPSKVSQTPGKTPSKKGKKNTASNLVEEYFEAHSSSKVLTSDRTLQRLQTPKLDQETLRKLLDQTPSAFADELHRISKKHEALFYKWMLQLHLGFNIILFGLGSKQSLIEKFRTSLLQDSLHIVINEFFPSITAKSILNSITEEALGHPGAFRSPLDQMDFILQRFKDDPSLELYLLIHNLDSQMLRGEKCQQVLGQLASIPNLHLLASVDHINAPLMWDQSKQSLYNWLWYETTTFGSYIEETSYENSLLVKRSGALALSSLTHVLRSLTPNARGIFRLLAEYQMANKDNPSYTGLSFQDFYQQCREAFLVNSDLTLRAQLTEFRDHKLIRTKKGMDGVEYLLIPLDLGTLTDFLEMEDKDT

[4] = target: T4, Xmcm3 (Xenopus, UniProt P49739 1-807); assay: co-immunoprecipitation (preliminary experiments)
T4 sequence (looked up): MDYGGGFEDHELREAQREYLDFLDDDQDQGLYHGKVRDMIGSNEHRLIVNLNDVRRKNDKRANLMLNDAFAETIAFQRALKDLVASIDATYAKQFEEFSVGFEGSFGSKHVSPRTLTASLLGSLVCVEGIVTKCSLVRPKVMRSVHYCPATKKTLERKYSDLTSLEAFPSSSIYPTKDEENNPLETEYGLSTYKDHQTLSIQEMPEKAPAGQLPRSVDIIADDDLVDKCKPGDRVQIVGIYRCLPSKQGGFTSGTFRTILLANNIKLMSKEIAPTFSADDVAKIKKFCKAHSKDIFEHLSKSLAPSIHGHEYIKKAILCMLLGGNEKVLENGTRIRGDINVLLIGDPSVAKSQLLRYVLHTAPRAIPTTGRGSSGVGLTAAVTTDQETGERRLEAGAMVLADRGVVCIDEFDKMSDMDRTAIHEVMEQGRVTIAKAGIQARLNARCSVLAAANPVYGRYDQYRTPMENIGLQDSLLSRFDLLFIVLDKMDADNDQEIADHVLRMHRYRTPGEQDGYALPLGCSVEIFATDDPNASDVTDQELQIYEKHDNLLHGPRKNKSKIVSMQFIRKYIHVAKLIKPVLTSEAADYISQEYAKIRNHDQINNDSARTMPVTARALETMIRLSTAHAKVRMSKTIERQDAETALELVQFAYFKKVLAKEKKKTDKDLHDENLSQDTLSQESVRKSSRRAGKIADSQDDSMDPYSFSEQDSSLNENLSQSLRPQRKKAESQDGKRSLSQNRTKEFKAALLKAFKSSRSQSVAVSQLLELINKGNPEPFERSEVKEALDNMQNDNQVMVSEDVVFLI

Molecule: interphase APC (immunoprecipitated from interphase Xenopus egg extract)
ubiquitin conjugates (ladder on autoradiogram) in a reconstituted ubiquitination reaction [1]: The ladder did not appear ... if the APC was immunoprecipitated from interphase extracts (lane 7)

Molecule: mitotic anaphase promoting complex (APC) of Xenopus mitotic egg extract
ubiquitin conjugates (ladder on autoradiogram) in a reconstituted ubiquitination reaction [1]: a characteristic ladder of ubiquitin conjugates appeared above the starting material | ubiquitin conjugates (ladder on autoradiogram) in a reconstituted ubiquitination reaction [2]: The ladder did not appear if the destruction box mutant geminin^DEL was used as the substrate

binding result [3]: no binding | binding result [4]: no binding
B1: geminin (Xenopus; as used in the co-immunoprecipitation experiments) (other)
chain: T1 sequence

Source: patent US6548290 (Harvard, dated 2003)
